Test results taken from patent publication US20190309059A1 (SHANGHAI PHARMAEXPLORER, published 2019).

Legend:
[1] = biological target: his-labeled human IL-13 (immunogen A) (human) (UniProt P35225); assay: cell-based or functional assay
[2] = biological target: cynomolgus IL-13 (purchased from sino biological) (cynomolgus) (UniProt Q0PW92); assay: ELISA, cynomolgus IL-13; antibody at 0.53 nM
[3] = biological target: cynomolgus IL-13 (purchased from sino biological) (cynomolgus) (UniProt Q0PW92); assay: ELISA, cynomolgus IL-13; antibody at 2.67 nM
[4] = biological target: cynomolgus IL-13 (purchased from sino biological) (cynomolgus) (UniProt Q0PW92); assay: ELISA, cynomolgus IL-13; antibody at 0.004 nM
[5] = biological target: cynomolgus IL-13 (purchased from sino biological) (cynomolgus) (UniProt Q0PW92); assay: ELISA, cynomolgus IL-13; antibody at 0.021 nM
[6] = biological target: cynomolgus IL-13 (purchased from sino biological) (cynomolgus) (UniProt Q0PW92); assay: ELISA, cynomolgus IL-13; antibody at 0.107 nM
[7] = biological target: his-labeled human IL-13 (immunogen A) (human) (UniProt P35225); assay: ELISA, biotin-immunogen A; antibody at 0.11 nM
[8] = biological target: his-labeled human IL-13 (immunogen A) (human) (UniProt P35225); assay: ELISA, biotin-immunogen A; antibody at 0.53 nM
[9] = biological target: his-labeled human IL-13 (immunogen A) (human) (UniProt P35225); assay: ELISA, biotin-immunogen A; antibody at 2.67 nM
[10] = biological target: his-labeled human IL-13 (immunogen A) (human) (UniProt P35225); assay: ELISA, biotin-immunogen A; antibody at 13.33 nM
[11] = biological target: his-labeled human IL-13 (immunogen A) (human) (UniProt P35225); assay: FACS blocking, biotin-IL-13 on IL-13Ra2 HEK293 cells; antibody at 0.01 nM
[12] = biological target: his-labeled human IL-13 (immunogen A) (human) (UniProt P35225); assay: FACS blocking, biotin-IL-13 on IL-13Ra2 HEK293 cells; antibody at 0.05 nM
[13] = biological target: his-labeled human IL-13 (immunogen A) (human) (UniProt P35225); assay: FACS blocking, biotin-IL-13 on IL-13Ra2 HEK293 cells; antibody at 0.27 nM
[14] = biological target: his-labeled human IL-13 (immunogen A) (human) (UniProt P35225); assay: FACS blocking, biotin-IL-13 on IL-13Ra2 HEK293 cells; antibody at 1.33 nM
[15] = biological target: his-labeled human IL-13 (immunogen A) (human) (UniProt P35225); assay: FACS blocking, biotin-IL-13 on IL-13Ra2 HEK293 cells; antibody at 6.67 nM
[16] = biological target: his-labeled human IL-13 (immunogen A) (human) (UniProt P35225); assay: ELISA, biotin-immunogen A; antibody at 0.00 nM (6th dilution)
[17] = biological target: his-labeled human IL-13 (immunogen A) (human) (UniProt P35225); assay: FACS blocking, biotin-IL-13 on IL-13Ra2 HEK293 cells; antibody at 0.002 nM
[18] = biological target: his-labeled human IL-13 (immunogen A) (human) (UniProt P35225); assay: FACS blocking, biotin-IL-13 on IL-13Ra2 HEK293 cells; antibody at 33.33 nM
[19] = biological target: his-labeled human IL-13 (immunogen A) (human) (UniProt P35225); assay: FACS blocking, biotin-IL-13 on IL-13Ra2 HEK293 cells; antibody at 166.67 nM
[20] = biological target: his-labeled human IL-13 (immunogen A) (human) (UniProt P35225); assay: FACS blocking, biotin-IL-13 on IL-13Ra1/IL-4Ra HEK293 cells; antibody at 0.01 nM
[21] = biological target: his-labeled human IL-13 (immunogen A) (human) (UniProt P35225); assay: FACS blocking, biotin-IL-13 on IL-13Ra1/IL-4Ra HEK293 cells; antibody at 0.05 nM
[22] = biological target: his-labeled human IL-13 (immunogen A) (human) (UniProt P35225); assay: FACS blocking, biotin-IL-13 on IL-13Ra1/IL-4Ra HEK293 cells; antibody at 0.27 nM
[23] = biological target: his-labeled human IL-13 (immunogen A) (human) (UniProt P35225); assay: FACS blocking, biotin-IL-13 on IL-13Ra1/IL-4Ra HEK293 cells; antibody at 1.33 nM
[24] = biological target: his-labeled human IL-13 (immunogen A) (human) (UniProt P35225); assay: FACS blocking, biotin-IL-13 on IL-13Ra1/IL-4Ra HEK293 cells; antibody at 6.67 nM
[25] = biological target: his-labeled human IL-13 (immunogen A) (human) (UniProt P35225); assay: FACS blocking, biotin-IL-13 on IL-13Ra1/IL-4Ra HEK293 cells; antibody at 0.002 nM
[26] = biological target: his-labeled human IL-13 (immunogen A) (human) (UniProt P35225); assay: FACS blocking, biotin-IL-13 on IL-13Ra1/IL-4Ra HEK293 cells; antibody at 33.33 nM
[27] = biological target: his-labeled human IL-13 (immunogen A) (human) (UniProt P35225); assay: FACS blocking, biotin-IL-13 on IL-13Ra1/IL-4Ra HEK293 cells; antibody at 166.67 nM
[28] = biological target: his-labeled human IL-13R130Q variant (human) (UniProt P35225); assay: ELISA: IL-13R130Q variant on the plate, antibody titrated, HRP secondary antibody, OD450
Chain of his-labeled human IL-13R130Q variant (human) (P35225 other isoform, or with tags, fused parts or gaps mutant): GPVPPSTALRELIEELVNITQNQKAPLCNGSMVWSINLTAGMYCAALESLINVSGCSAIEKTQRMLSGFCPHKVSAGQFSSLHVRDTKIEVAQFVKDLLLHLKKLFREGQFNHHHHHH

Chain of cynomolgus IL-13 (purchased from sino biological) (cynomolgus) (Q0PW92 entry or part of it): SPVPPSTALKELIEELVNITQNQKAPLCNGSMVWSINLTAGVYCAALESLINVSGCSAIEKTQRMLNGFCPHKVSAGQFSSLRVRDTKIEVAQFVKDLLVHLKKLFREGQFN

B1: c28A2E11 (mouse-human chimeric IL-13 antibody) (antibody, V domains shown)
VH: EVQLQQSGAELVKPGASVKLSCTASGFNIKDYYMHWVKQRTEQGLEWIGRIDPEDGETKYAPKFHDKATLTADTSSNTAYLQFSSLASEDTAVYYCTRYDYYGPFAYWGQGTLVTVSA
VL: QAVVTQESVLTTSPGETVTLTCRSSTGAVTTSNYANWVQEKPDHLFTGLIGGTNNRAPGVPARFSGSLIGDKAALTITGAQTEDEAIYFCALWYINHFIFGSGTKVTVL
B1 gave a Periostin (pg/mL), MRCS cells + IL-13 5 ng/mL; antibody at 0.0002 nM [1] of 7090 pg/mL, a Periostin (pg/mL), MRCS cells + IL-13 5 ng/mL; antibody at 0.001 nM [1] of 6350 pg/mL and a Periostin (pg/mL), MRCS cells + IL-13 5 ng/mL; antibody at 0.004 nM [1] of 5500 pg/mL. It also gave a Periostin (pg/mL), MRCS cells + IL-13 5 ng/mL; antibody at 0.021 nM [1] of 4920 pg/mL, a Periostin (pg/mL), MRCS cells + IL-13 5 ng/mL; antibody at 0.11 nM [1] of 4130 pg/mL and a Periostin (pg/mL), MRCS cells + IL-13 5 ng/mL; antibody at 0.53 nM [1] of 1650 pg/mL. It also gave a Periostin (pg/mL), MRCS cells + IL-13 5 ng/mL; antibody at 2.67 nM [1] of 1100 pg/mL, a Periostin (pg/mL), MRCS cells + IL-13 5 ng/mL; antibody at 13.3 nM [1] of 1160 pg/mL and a VCAM-1 fluorescence intensity, HUVEC + IL-13 0.5 ng/mL + TNFα; antibody at 0.0002 nM [1] of 379. It also gave a VCAM-1 fluorescence intensity, HUVEC + IL-13 0.5 ng/mL + TNFα; antibody at 0.001 nM [1] of 346, a VCAM-1 fluorescence intensity, HUVEC + IL-13 0.5 ng/mL + TNFα; antibody at 0.004 nM [1] of 395 and a VCAM-1 fluorescence intensity, HUVEC + IL-13 0.5 ng/mL + TNFα; antibody at 0.021 nM [1] of 404. It also gave a VCAM-1 fluorescence intensity, HUVEC + IL-13 0.5 ng/mL + TNFα; antibody at 0.11 nM [1] of 278, a VCAM-1 fluorescence intensity, HUVEC + IL-13 0.5 ng/mL + TNFα; antibody at 0.53 nM [1] of 227 and a VCAM-1 fluorescence intensity, HUVEC + IL-13 0.5 ng/mL + TNFα; antibody at 2.67 nM [1] of 224. For the same binder, the VCAM-1 fluorescence intensity, HUVEC + IL-13 0.5 ng/mL + TNFα; antibody at 13.3 nM [1] was 207, the OD450 nm [2] was 0.54 and the OD450 nm [3] was 1.34. The OD450 nm [4] was 0.073, the OD450 nm [5] was 0.085 and the OD450 nm [6] was 0.183. It also gave an OD450 nm [7] of 0.83, an OD450 nm [8] of 1.93 and an OD450 nm [9] of 2.6. The OD450 nm [10] was 2.71, the mean fluorescence intensity [11] was 99.1 and the mean fluorescence intensity [12] was 97.8. It also gave a mean fluorescence intensity [13] of 92.9, a mean fluorescence intensity [14] of 77.7 and a mean fluorescence intensity [15] of 65.7. It also gave an OD450 nm [16] of 0.1, a mean fluorescence intensity [17] of 102 and a mean fluorescence intensity [18] of 64.8. The mean fluorescence intensity [19] was 58, the mean fluorescence intensity [20] was 102 and the mean fluorescence intensity [21] was 95.6. It also gave a mean fluorescence intensity [22] of 93, a mean fluorescence intensity [23] of 76.6 and a mean fluorescence intensity [24] of 65.2. It also gave a mean fluorescence intensity [25] of 102, a mean fluorescence intensity [26] of 61.9 and a mean fluorescence intensity [27] of 51.2. It also gave an EC50 (read off the curve) [28] of 0.3 nM.
